Measurements published in PMC11133372 (Communications Biology, 2024).

B1: scFv(Niv), scFv of PD-1 targeting nivolumab, purified as scFv-scFc-H6 fusion protein (Fc fusion)
VH: QVQLVESGGGVVQPGRSLRLDCKASGITFSNSGMHWVRQAPGKGLEWVAVIWYDGSKRYYADSVKGRFTISRDNSKNTLFLQMNSLRAEDTAVYYCATNDDYWGQGTLVTVSS
VL: EIVLTQSPATLSLSPGERATLSCRASQSVSSYLAWYQQKPGQAPRLLIYDASNRATGIPARFSGSGSGTDFTLTISSLEPEDFAVYYCQQSSNWPRTFGQGTKVEIK
notes: scFv of nivolumab; Control scFv; not shown: single-chain Fc (two human IgG1 Fc domains; residues 104-330 of UniProt P01857), C-terminal, kept; His6, C-terminal, kept
B2: scFv(Dac), scFv of the CD25-targeting monoclonal antibody daclizumab, purified as scFv-scFc-H6 fusion protein (Fc fusion)
VH: QVQLVQSGAEVKKPGSSVKVSCKASGYTFTSYRMHWVRQAPGQGLEWIGYINPSTGYTEYNQKFKDKATITADESTNTAYMELSSLRSEDTAVYYCARGGGVFDYWGQGTLVTVSS
VL: DIQMTQSPSTLSASVGDRVTITCSASSSISYMHWYQQKPGKAPKLLIYTTSNLASGVPARFSGSGSGTEFTLTISSLQPDDFATYYCHQRSTYPLTFGQGTKVEVK
notes: scFv of daclizumab; Control scFv; not shown: single-chain Fc (two human IgG1 Fc domains; residues 104-330 of UniProt P01857), C-terminal, kept; His6, C-terminal, kept

Target: T1, human epidermal growth factor receptor 2 (HER2) (Homo sapiens, UniProt P04626)
T1 construct: human HER2, cDNA expressed as HER2-T2A-mCherry; HER2 on the cell surface, mCherry intracellular after T2A self-cleavage; residues of it may stay on the C-terminus after self-cleavage (surmise); also called K562/HER2 cells; source: K562, lentiviral transduction with pCSII/HER2-mCherry, on the cell surface
Experiment: flow cytometry on cells; K562/HER2 cells incubated with 0.5-1600 nM purified scFv-scFc-H6 for 90 min at 4 °C, detected with AF488-conjugated anti-HisTag antibody; 3% FBS-PBS
Details: one partner purified

Binder	binding result
B1	no binding (tested: 1600 nM)
B2	no binding (tested: 1600 nM)
